Experimental data reported in patent US10005829B2, “Synthetic linear apelin mimetics for the treatment of heart failure” (priority 2012, dated 2018).
Each block holds one binder with its values, some of them ahead of it. [ ]: non-standard residue; d: D form. pGlu = O=C1CC[C@@H](C(=O)O)N1; dNle = CCCC[C@@H](N)C(=O)O; Aib = CC(C)(N)C(=O)O

Biological target: T1, APJ receptor (human, UniProt P35414 1-380)
T1 sequence (looked up): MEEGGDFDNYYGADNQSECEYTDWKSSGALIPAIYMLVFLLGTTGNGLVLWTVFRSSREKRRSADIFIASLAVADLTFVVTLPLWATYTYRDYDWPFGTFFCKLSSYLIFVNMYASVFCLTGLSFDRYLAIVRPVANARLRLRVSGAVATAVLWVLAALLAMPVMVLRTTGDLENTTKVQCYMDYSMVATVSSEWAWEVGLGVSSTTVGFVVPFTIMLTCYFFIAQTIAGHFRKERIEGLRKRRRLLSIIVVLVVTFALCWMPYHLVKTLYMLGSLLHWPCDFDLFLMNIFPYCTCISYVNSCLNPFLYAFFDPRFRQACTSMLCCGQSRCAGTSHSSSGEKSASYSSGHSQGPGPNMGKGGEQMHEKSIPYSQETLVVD
Test: cell-based or functional assay

B1: pE-R-P-R-L-a-Aib-K-G-P-nle-a-f-OH (peptide)
peptide: [pGlu]RPRL[dA][Aib]KGP[dNle][dA][dF]-OH
SMILES: CCCC[C@@H](NC(=O)[C@@H]1CCCN1C(=O)CNC(=O)[C@H](CCCCN)NC(=O)C(C)(C)NC(=O)[C@@H](C)NC(=O)[C@H](CC(C)C)NC(=O)[C@H](CCCNC(=N)N)NC(=O)[C@@H]1CCCN1C(=O)[C@H](CCCNC(=N)N)NC(=O)[C@@H]1CCC(=O)N1)C(=O)N[C@H](C)C(=O)N[C@H](Cc1ccccc1)C(=O)O
hAPJ Ca^2+ Flux EC50: 2.1 nM

B2: pE-R-P-R-L-a-H-K-G-P-nle-(D-Leu)-f-OH (peptide)
peptide: [pGlu]RPRL[dA]HKGP[dNle][dL][dF]-OH
SMILES: CCCC[C@@H](NC(=O)[C@@H]1CCCN1C(=O)CNC(=O)[C@H](CCCCN)NC(=O)[C@H](Cc1c[nH]cn1)NC(=O)[C@@H](C)NC(=O)[C@H](CC(C)C)NC(=O)[C@H](CCCNC(=N)N)NC(=O)[C@@H]1CCCN1C(=O)[C@H](CCCNC(=N)N)NC(=O)[C@@H]1CCC(=O)N1)C(=O)N[C@H](CC(C)C)C(=O)N[C@H](Cc1ccccc1)C(=O)O
hAPJ Ca^2+ Flux EC50: 3.2 nM

B4: pE-R-P-R-L-s-H-K-G-P-nle-a-f-OH (peptide)
peptide: [pGlu]RPRL[dS]HKGP[dNle][dA][dF]-OH
SMILES: CCCC[C@@H](NC(=O)[C@@H]1CCCN1C(=O)CNC(=O)[C@H](CCCCN)NC(=O)[C@H](Cc1c[nH]cn1)NC(=O)[C@@H](CO)NC(=O)[C@H](CC(C)C)NC(=O)[C@H](CCCNC(=N)N)NC(=O)[C@@H]1CCCN1C(=O)[C@H](CCCNC(=N)N)NC(=O)[C@@H]1CCC(=O)N1)C(=O)N[C@H](C)C(=O)N[C@H](Cc1ccccc1)C(=O)O
hAPJ Ca^2+ Flux EC50: 0.9 nM

B8: pE-R-P-R-L-(D-Leu)-H-K-G-P-nle-a-f-OH (peptide)
peptide: [pGlu]RPRL[dL]HKGP[dNle][dA][dF]-OH
SMILES: CCCC[C@@H](NC(=O)[C@@H]1CCCN1C(=O)CNC(=O)[C@H](CCCCN)NC(=O)[C@H](Cc1c[nH]cn1)NC(=O)[C@@H](CC(C)C)NC(=O)[C@H](CC(C)C)NC(=O)[C@H](CCCNC(=N)N)NC(=O)[C@@H]1CCCN1C(=O)[C@H](CCCNC(=N)N)NC(=O)[C@@H]1CCC(=O)N1)C(=O)N[C@H](C)C(=O)N[C@H](Cc1ccccc1)C(=O)O
hAPJ Ca^2+ Flux EC50: 155 nM

Other lines, results leading:

hAPJ Ca^2+ Flux EC50: 1.1 nM
B3: pE-R-P-R-L-a-H-K-G-P-nle-p-f-OH (peptide)
peptide: [pGlu]RPRL[dA]HKGP[dNle][dP][dF]-OH
SMILES: CCCC[C@@H](NC(=O)[C@@H]1CCCN1C(=O)CNC(=O)[C@H](CCCCN)NC(=O)[C@H](Cc1c[nH]cn1)NC(=O)[C@@H](C)NC(=O)[C@H](CC(C)C)NC(=O)[C@H](CCCNC(=N)N)NC(=O)[C@@H]1CCCN1C(=O)[C@H](CCCNC(=N)N)NC(=O)[C@@H]1CCC(=O)N1)C(=O)N1CCC[C@@H]1C(=O)N[C@H](Cc1ccccc1)C(=O)O

hAPJ Ca^2+ Flux EC50: 2.3 nM
B5: pE-R-P-R-L-a-H-K-G-Pip-nle-a-f-OH (peptide)
peptide: ERPRLAHKGXLAF
modifications: pE (pyroglutamic acid) at 1; D-Ala at 6; Pip (pipecolic acid) at 10; D-Nle at 11; D-Ala at 12; D-Phe at 13

hAPJ Ca^2+ Flux EC50: 1060 nM
B6: pE-R-P-R-L-k-H-K-G-P-nle-a-f-OH (peptide)
peptide: [pGlu]RPRL[dK]HKGP[dNle][dA][dF]-OH
SMILES: CCCC[C@@H](NC(=O)[C@@H]1CCCN1C(=O)CNC(=O)[C@H](CCCCN)NC(=O)[C@H](Cc1c[nH]cn1)NC(=O)[C@@H](CCCCN)NC(=O)[C@H](CC(C)C)NC(=O)[C@H](CCCNC(=N)N)NC(=O)[C@@H]1CCCN1C(=O)[C@H](CCCNC(=N)N)NC(=O)[C@@H]1CCC(=O)N1)C(=O)N[C@H](C)C(=O)N[C@H](Cc1ccccc1)C(=O)O

hAPJ Ca^2+ Flux EC50: 8.8 nM
B7: pE-R-P-R-L-a-h-K-G-P-nle-a-f-OH (peptide)
peptide: [pGlu]RPRL[dA][dH]KGP[dNle][dA][dF]-OH
